# ± gives the uncertainty stated by the source.
# Experiment: self-splicing fitness, log relative to wild type (ln ratio); higher = more splicing; Tetrahymena group I intron in knt gene, E. coli kanamycin selection, DiMSum; sequences stand for … in CUCUCU…GGAGGGAAAAGUUAUCAGGCAUGCACCUGGUAGCUAGUCUUUAAACCAAUAGAUUGCAUCGGUUUAAAAGGCAAGACCGUCAAAUUGCGGGAAAGGGGUCAACAGCCGUUCAGUACCAAGUCUCAGGGGAAACUUUGAGAUGGCCUUGCAAAGGGUAUGGUAAUAAGCUGACGGACAUGGUCCUAACCACGCAGCCAAGUCCUAAGUCAACAGAUCUUCUGUUGAUAUGGAUGCAGUUCACAGACUAAAUGUCGGUCGGGGAAGAUGUAUUCUUCUCAUAAGAUAUAGUCGGACCUCUCCUUAAUGGGAGCUAGCGGAUGAAGUGAUGCAACACUGGAGCCGCUGGGAACUAAUUUGUAUGCGAAAGUAUAUUGAUUAGUUUUGGAGUACUCGUGGUCG
# Procedure, shortened: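 Colonies from six replicate transformations of E. coli BL21(DE3) were pooled and amplicon-sequenced on an Illumina HiSeq 2500. The library placed an intron with all eight P1ex-region nucleotides randomised inside the knt kanamycin-resistance gene on pET-22b(+), and cells grew overnight at 37°C or 30°C on LB agar with or without 25 μg/mL kanamycin (plus 100 μg/mL carbenicillin, 50 μM IPTG, 0.2% rhamnose). Fitness is the DiMSum error-weighted combination of wild-type-normalised replicate fold changes, kanamycin versus none.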
sequence,measurement,setting,value
UUUCAGCAAUAUUACGUGCC,self-splicing fitness (ln),30 °C,-3.44 ± 0.25
same,self-splicing fitness (ln),37 °C,-1.57 ± 0.23
GUGUAGCAAUAUUACGGUGC,self-splicing fitness (ln),30 °C,-2.8 ± 0.21
same,self-splicing fitness (ln),37 °C,-2.18 ± 0.18
UCCUAGCAAUAUUACGAAAG,self-splicing fitness (ln),30 °C,-2.86 ± 0.33
GUCUAGCAAUAUUACGAGCU,self-splicing fitness (ln),30 °C,-2.17 ± 0.33
same,self-splicing fitness (ln),37 °C,-0.962 ± 0.23
AUCGAGCAAUAUUACGUGAC,self-splicing fitness (ln),30 °C,-3.54 ± 0.26
same,self-splicing fitness (ln),37 °C,-2.91 ± 0.29
GUAGAGCAAUAUUACGCCGU,self-splicing fitness (ln),30 °C,-1.3 ± 0.33
same,self-splicing fitness (ln),37 °C,-0.778 ± 0.45
CUUCAGCAAUAUUACGUUUC,self-splicing fitness (ln),30 °C,-2.93 ± 0.17
same,self-splicing fitness (ln),37 °C,-2.17 ± 0.2
GAUAAGCAAUAUUACGAAUG,self-splicing fitness (ln),30 °C,-1.28 ± 0.14
same,self-splicing fitness (ln),37 °C,-0.794 ± 0.15
UAGCAGCAAUAUUACGCCUG,self-splicing fitness (ln),30 °C,-1.79 ± 0.11
same,self-splicing fitness (ln),37 °C,-0.602 ± 0.13
GUACAGCAAUAUUACGGCCG,self-splicing fitness (ln),30 °C,-1.89 ± 0.1
same,self-splicing fitness (ln),37 °C,-0.534 ± 0.13
GGCCAGCAAUAUUACGGGUC,self-splicing fitness (ln),30 °C,-3.65 ± 0.26
same,self-splicing fitness (ln),37 °C,-2.41 ± 0.23
CAGCAGCAAUAUUACGAUAG,self-splicing fitness (ln),30 °C,-0.297 ± 0.063
same,self-splicing fitness (ln),37 °C,-0.0435 ± 0.077
UGUGAGCAAUAUUACGCACG,self-splicing fitness (ln),30 °C,-1.47 ± 0.21
same,self-splicing fitness (ln),37 °C,-1.8 ± 0.21
AACUAGCAAUAUUACGGAGA,self-splicing fitness (ln),30 °C,-2.62 ± 0.23
same,self-splicing fitness (ln),37 °C,-1.35 ± 0.2
UUUCAGCAAUAUUACGCAGA,self-splicing fitness (ln),30 °C,-1.32 ± 0.27
same,self-splicing fitness (ln),37 °C,-1.6 ± 0.24
AUUUAGCAAUAUUACGGAAG,self-splicing fitness (ln),30 °C,-1.33 ± 0.29
same,self-splicing fitness (ln),37 °C,-1.49 ± 0.39
ACCUAGCAAUAUUACGCGAG,self-splicing fitness (ln),30 °C,-3.54 ± 0.15
same,self-splicing fitness (ln),37 °C,-1.55 ± 0.11
AUCGAGCAAUAUUACGUAAA,self-splicing fitness (ln),30 °C,-3.43 ± 0.3
same,self-splicing fitness (ln),37 °C,-1.53 ± 0.29
GUGAAGCAAUAUUACGUCGU,self-splicing fitness (ln),30 °C,-0.585 ± 0.11
same,self-splicing fitness (ln),37 °C,-0.777 ± 0.12
CCAAAGCAAUAUUACGUCUU,self-splicing fitness (ln),30 °C,-4.12 ± 0.21
same,self-splicing fitness (ln),37 °C,-2.43 ± 0.14
CAAUAGCAAUAUUACGCGUA,self-splicing fitness (ln),30 °C,-2.09 ± 0.18
same,self-splicing fitness (ln),37 °C,-1.85 ± 0.23
CGAGAGCAAUAUUACGAUAG,self-splicing fitness (ln),30 °C,-2.68 ± 0.18
same,self-splicing fitness (ln),37 °C,-2.11 ± 0.18
GAUCAGCAAUAUUACGAUCA,self-splicing fitness (ln),30 °C,-0.53 ± 0.13
same,self-splicing fitness (ln),37 °C,-0.636 ± 0.097
AAGGAGCAAUAUUACGUUAG,self-splicing fitness (ln),30 °C,-3.67 ± 0.18
same,self-splicing fitness (ln),37 °C,-2.95 ± 0.22
AUGCAGCAAUAUUACGAUUC,self-splicing fitness (ln),30 °C,-2.72 ± 0.14
same,self-splicing fitness (ln),37 °C,-0.939 ± 0.17
CUGGAGCAAUAUUACGUUCU,self-splicing fitness (ln),30 °C,-2.43 ± 0.26
same,self-splicing fitness (ln),37 °C,-1.68 ± 0.49
UGCGAGCAAUAUUACGCGGA,self-splicing fitness (ln),30 °C,-2.41 ± 0.28
same,self-splicing fitness (ln),37 °C,-2.09 ± 0.31
AUGAAGCAAUAUUACGCCUG,self-splicing fitness (ln),30 °C,-0.59 ± 0.092
same,self-splicing fitness (ln),37 °C,-0.209 ± 0.11
UUUCAGCAAUAUUACGUUGU,self-splicing fitness (ln),30 °C,-3.23 ± 0.21
same,self-splicing fitness (ln),37 °C,-2.06 ± 0.15
UGAAAGCAAUAUUACGAUAG,self-splicing fitness (ln),30 °C,-1.07 ± 0.098
same,self-splicing fitness (ln),37 °C,-0.612 ± 0.098
CAGUAGCAAUAUUACGACCA,self-splicing fitness (ln),30 °C,-0.792 ± 0.28
same,self-splicing fitness (ln),37 °C,-0.375 ± 0.27
AACGAGCAAUAUUACGAUCG,self-splicing fitness (ln),30 °C,-1.19 ± 0.14
same,self-splicing fitness (ln),37 °C,-1.06 ± 0.16
CGCCAGCAAUAUUACGUAGG,self-splicing fitness (ln),30 °C,-2.47 ± 0.085
same,self-splicing fitness (ln),37 °C,-1.32 ± 0.1
AUCUAGCAAUAUUACGGGCU,self-splicing fitness (ln),30 °C,-2.22 ± 0.16
same,self-splicing fitness (ln),37 °C,-2.49 ± 0.23
GGCCAGCAAUAUUACGGCUU,self-splicing fitness (ln),30 °C,-3.45 ± 0.21
same,self-splicing fitness (ln),37 °C,-2.68 ± 0.22
UCGAAGCAAUAUUACGAUGA,self-splicing fitness (ln),30 °C,-0.316 ± 0.068
same,self-splicing fitness (ln),37 °C,0.368 ± 0.074
CACGAGCAAUAUUACGGGAU,self-splicing fitness (ln),30 °C,-3.52 ± 0.28
same,self-splicing fitness (ln),37 °C,-2.33 ± 0.21
AGUUAGCAAUAUUACGCUCC,self-splicing fitness (ln),30 °C,-1.45 ± 0.45
same,self-splicing fitness (ln),37 °C,-1.02 ± 0.33
